# In US20030228654A1, “Method for producing antimicrobial protein and fusion protein” (KABUSHIKI KAISHA TOYOTA CHUO KENKYUSHO, priority 2000, published 2003):
# B1: Example 2: Fusion protein of barley thionin and PDI from Fumicola insolens (SEQ ID No: 2); refolded, cleaved with Factor Xa (protein)
# chain: EKHMIEGRMKSCCRSTLGRNCYNLCRVRGAQKLCAGVCRCKLTSSGKCPTGFPKMIEGRTLALVSNSDEPDTVKYCNLGCRASMCDYMVNAAADDEEMKLYLENCGDACVNFCNGDAGLTSLTA
# modifications: Hordeum vulgare
# Tested on: Ceratocystis fimbriata
# Assay: Assay of antimicrobial activity: growth inhibition of Ceratocystis fimbriata spore suspension in 96-well microplate, absorbance at 415 nm
# Assay type: cell-based
# Settings: Factor Xa-cleaved, concentrated protein solution 30 μl per well; MES buffer pH 6; 26° C.; absorbance 415 nm, 48 hours vs 30 minutes
# Procedure: As shown in SEQ ID No: 1, 2 or 4, the fusion proteins of Examples 1 and 2 and Comparative Example 2 thus dialyzed retained the recognition sequence of a protease Factor Xa in between thionin and the partner protein. Then, the fusion protein was subjected to cleavage with Factor Xa of 30 μg per 1 mg of each fusion protein described above at 30° C. overnight.
# The protein solution recovered by the cleavage procedures was concentrated to 30 μl using Microcon-3 (MWCO: 3000) as a concentration unit with a filtration membrane. Such great number of concentrated sample solutions were divided at 30 μl each in the individual wells of a 96-well microplate, followed by addition of 10 μl of 200 mM MES [2-(N-morpholino)ethanesulfonic acid] buffer at pH 6 and 60 μL of a spore suspension of Ceratocystis fimbriata (100,000 spores per 1 ml-80% potato dextrose broth). Then, the resulting mixtures were cultured at 26° C. […]
# Then, the absorbance 30 minutes and 48 hours later was measured at 415 nm with a microplate reader of Model 3550. The growth inhibition was determined by the following formula (1). Herein, A represents the value obtained by subtracting the absorbance measured 30 minutes later from that measured 48 hours later in each concentrated sample solution, and B represents the same value in a solution not containing the sample. […]
molecule,measurement,value
B1,Growth inhibition (%),99.1%
